In patent publication US20190361034A1:

Legend:
[1] = target: MHC class II molecules on MHC class II-expressing Raji cells (human); test: cell-based or functional assay
[2] = target: MHC class II molecules on MHC class II-expressing Raji cells (human); test: BLI; immobilised sample, Raji cells in solution; FIG. 23
[3] = target: MHC class II molecules on MHC class II-expressing Raji cells (human); test: BLI; immobilised sample, Raji cells in solution; FIG. 24

Row | Substance | Bioactivity (CCL4 release) [1] [%] | Bioactivity (binding) [2] [%] | Bioactivity (binding) [3] [%]
1 | IMP321 Oxidation, 0.1% H2O2 at 37° C. (1 D = 1 day) (Fc fusion) | 21 |  | 
2 | IMP321 Oxidation, 1% H2O2 at 37° C. (1 D = 1 day) (Fc fusion) | 10 |  | 
3 | IMP321, Acid pH 3.0 at RT (1 D = 1 day) (Fc fusion) | 7 |  | 
4 | IMP321, Acid pH 3.1 at RT (1 D = 1 day) (Fc fusion) | 15 |  | 
5 | IMP321, Light, 5 D = 5 days (Fc fusion) | 87 | 74 | 

The remaining lines, values ahead:

Row | Bioactivity (CCL4 release) [1] [%] | Bioactivity (binding) [2] [%] | Bioactivity (binding) [3] [%] | Substance
6 | 29 |  |  | IMP321, Acid pH 3.6 at RT (1 D = 1 day) (Fc fusion)
7 | 17 |  |  | IMP321, Alkali pH 9.2 at 37° C. (1 D = 1 day) (Fc fusion)
8 | 73 |  | 75 | IMP321, Light, 10 D = 10 days (Fc fusion)
